Tests used:
[1] = biological target: T1, human PSMA antigen (R&D SYSTEM, 4234-ZN-010) (human, UniProt Q04609 44-750); experiment: ELISA, plate-bound PSMA antigen
T1 construct: bought antigen
Description: To test the ability of the PSMA-targeting humanized antibodies of the present disclosure to bind to PSMA antigen, the ELISA method was used in this test example to measure the binding of the PSMA-targeting humanized antibodies to human PSMA antigen (purchased from R&D SYSTEM, 4234-ZN-010). The specific steps are as follows: A 96-well plate was coated with PSMA antigen at 1 μg/well and placed at 4° C. overnight. After the supernatant was discarded, the plate was blocked with 5% skim milk for 2 h. Different concentrations of humanized antibodies were prepared using 1% BSA. The initial concentration was 10 μg/mL and was serially diluted 4-fold to obtain 12 concentrations. After the blocked 96-well plate was washed twice, the […] was added, and the plate was incubated at 4° C. for 1 h. After four washes, the plate was incubated with Strepidation-HRP secondary antibody (1:10,000) at 4° C. for 1 h. After color development with TMB, the reaction was stopped with 0.1 M sulfuric acid.

[2] = biological target: T2, human PSMA on cells (Cho-hPSMA, CHO-K1 cells overexpressing full-length human PSMA) (human, UniProt Q04609 1-750); experiment: cell ELISA (OD450), Cho-hPSMA cells
T2 construct: whole, on cells; also called cell surface PSMA; PSMA-expressing Lncap cells
Description: Experiment 2: Cells were cultured and inoculated onto a cell plate using the same method as in Experiment 1. The antibodies were serially diluted, and the antibody solutions were added to the cell plate at 100 μL/well. The plate was incubated at 4° C. for 1 h and then washed. An HRP-Goat Anti-human IgG (H+L) secondary antibody dilution (1:8000) was added to the cell plate at 100 μL/well, and the plate was incubated at 4° C. for 1 h and then washed by centrifugation. After color development with TMB, the reaction was stopped with 0.1 M sulfuric acid, and OD450 values were measured.

hPDL1 = hPDL1 (human, UniProt Q9NZQ7 19-238); experiment: ELISA
hCTLA4 = hCTLA4 (human, UniProt P16410 36-161); experiment: ELISA
hCTLA4, sequence (P16410 36-161 limits assumed): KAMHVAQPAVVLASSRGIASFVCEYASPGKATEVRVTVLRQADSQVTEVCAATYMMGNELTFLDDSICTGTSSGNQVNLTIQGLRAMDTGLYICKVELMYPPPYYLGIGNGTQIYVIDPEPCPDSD

T2 sequence (Q04609 whole entry): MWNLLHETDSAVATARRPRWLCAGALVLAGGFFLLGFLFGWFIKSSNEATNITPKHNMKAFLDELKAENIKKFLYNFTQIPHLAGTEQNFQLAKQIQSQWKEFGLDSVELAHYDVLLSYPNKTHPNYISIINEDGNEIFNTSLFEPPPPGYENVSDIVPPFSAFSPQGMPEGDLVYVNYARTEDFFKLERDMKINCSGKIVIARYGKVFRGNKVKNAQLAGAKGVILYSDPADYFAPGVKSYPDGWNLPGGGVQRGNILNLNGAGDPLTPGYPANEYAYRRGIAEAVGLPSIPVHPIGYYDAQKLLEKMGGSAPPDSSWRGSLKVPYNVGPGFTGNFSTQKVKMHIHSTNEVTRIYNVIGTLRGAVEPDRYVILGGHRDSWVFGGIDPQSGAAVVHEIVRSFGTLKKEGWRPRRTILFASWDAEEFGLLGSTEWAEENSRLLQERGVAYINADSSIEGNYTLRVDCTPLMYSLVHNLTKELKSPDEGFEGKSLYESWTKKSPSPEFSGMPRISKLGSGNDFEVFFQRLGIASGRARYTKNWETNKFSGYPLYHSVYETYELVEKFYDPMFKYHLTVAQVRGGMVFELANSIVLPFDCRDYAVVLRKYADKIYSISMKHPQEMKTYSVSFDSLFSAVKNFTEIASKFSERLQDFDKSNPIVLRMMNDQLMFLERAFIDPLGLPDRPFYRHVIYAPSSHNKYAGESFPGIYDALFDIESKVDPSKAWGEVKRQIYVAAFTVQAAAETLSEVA
T1 sequence (Q04609 44-750 limits assumed): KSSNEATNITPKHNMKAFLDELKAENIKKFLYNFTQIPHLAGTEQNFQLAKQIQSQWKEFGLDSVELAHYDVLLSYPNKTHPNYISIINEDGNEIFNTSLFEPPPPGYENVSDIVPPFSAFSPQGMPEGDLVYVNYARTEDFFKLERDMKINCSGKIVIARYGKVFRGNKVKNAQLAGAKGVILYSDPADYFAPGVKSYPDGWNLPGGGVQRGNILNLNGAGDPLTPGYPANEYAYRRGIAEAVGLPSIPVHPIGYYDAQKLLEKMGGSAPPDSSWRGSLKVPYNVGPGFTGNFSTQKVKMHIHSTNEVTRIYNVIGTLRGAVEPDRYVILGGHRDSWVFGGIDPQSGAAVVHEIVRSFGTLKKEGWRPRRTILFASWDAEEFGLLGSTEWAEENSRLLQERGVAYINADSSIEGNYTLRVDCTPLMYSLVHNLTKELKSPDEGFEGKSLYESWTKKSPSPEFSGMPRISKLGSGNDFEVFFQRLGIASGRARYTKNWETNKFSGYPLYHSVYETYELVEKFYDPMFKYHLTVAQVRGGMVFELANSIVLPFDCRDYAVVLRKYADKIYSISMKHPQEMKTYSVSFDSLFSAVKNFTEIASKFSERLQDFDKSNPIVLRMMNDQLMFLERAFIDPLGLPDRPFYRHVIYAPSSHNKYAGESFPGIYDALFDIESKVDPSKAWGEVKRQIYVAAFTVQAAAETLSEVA
hPDL1, sequence (Q9NZQ7 19-238 limits assumed): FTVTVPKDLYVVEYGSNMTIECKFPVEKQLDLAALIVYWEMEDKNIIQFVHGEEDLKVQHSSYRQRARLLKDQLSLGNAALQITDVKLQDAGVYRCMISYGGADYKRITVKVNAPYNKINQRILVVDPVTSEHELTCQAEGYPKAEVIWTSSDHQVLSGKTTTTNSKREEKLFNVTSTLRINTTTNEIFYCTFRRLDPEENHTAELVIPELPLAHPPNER

EC50 [1] [µg/mL]	Top (maximum absorbance) [1] [absorbance]	EC50 [2] [µg/mL]	EC50 (hPDL1) [nM]	EC50 (hCTLA4) [nM]	Binder
0.0864	1.76	0.142	–	–	hu31H1L1 (antibody, human IgG1, kappa, V domains shown) VH: EVQLVESGGGLVQPGGSLRLSCAASGFTFSDYYMAWVRQAPGKGLEWVASINYDGSSTYYLDSLKSRFTISRDNAKNSLYLQMNSLRAEDTAVYYCAGSDGYWAWFAYWGQGTLVTVSS VL: DIQMTQSPSSLSASVGDRVTITCRASGNIHNYLAWYQQKPGKAPKLLIYNAETLADGVPSRFSGSGSGTDFTLTISSLQPEDFATYYCQHFWSTPPTFGGGTKVEIKR
0.0421	1.3	0.0603	–	–	hu50H1L2 (antibody, human IgG1, kappa, also called hu50L2H1) heavy: not shown light: DVFMTQSPLSLPVTPGEPASISCRSSQSILHSNGNTYLEWYLQKPGQSPQLLIYRVSNRFSGVPDRFSGSGSGTDFTLKISRVEAEDVGVYYCFQGLHVPPTFGQGTKLEIKRTVAAPSVFIFPPSDEQLKSGTASVVCLLNNFYPREAKVQWKVDNALQSGNSQESVTEQDSKDSTYSLSSTLTLSKADYEKHKVYACEVTHQGLSSPVTKSFNRGEC
0.0365	1.67	0.0202	–	–	hu46H2L2 (antibody, human IgG1, kappa, V domains shown) VH: EVQLVESGGGLVKPGGSLRLSCAASGFTFSNYGMSWVRQAPGKGLEWVSTIGSGGGYTYYSDSVKGRFTISRDNAKNSLYLQMNSLRAEDTAVYYCVRHPQIGYWGQGTLVTVSS VL: DIQMTQSPSSLSASVGDRVTITCKASQSVGTAVAWYQQKPGKAPKLLIYSASSRYTGVPSRFSGSGSGTDFTLTISSLQPEDFADYFCHQYSSYPLTFGGGTKVEIKR
–	–	1.17	–	–	hu27H1L1 (antibody, human IgG1, kappa) heavy: not shown light: EIVLTQSPDFQSVTPKEKVTITCSASSSVSYMYWYQQKPDQSPKPWIYRTSNLASGVPSRFSGSGSGTDFTLTINSLEAEDAATYYCQQYHSYPLTFGQGTKLEIKRTVAAPSVFIFPPSDEQLKSGTASVVCLLNNFYPREAKVQWKVDNALQSGNSQESVTEQDSKDSTYSLSSTLTLSKADYEKHKVYACEVTHQGLSSPVTKSFNRGEC
–	–	2.39	–	–	hu27H1L5 (antibody, human IgG1, kappa) heavy: not shown light: EIVLTQSPDFQSVTPKEKVTIQCSASSSVSYMYWYQQKPDQSPKPWIYRTSNLASGVPSRFSGSGSGTDYTLTINSLEAEDAATYYCQQYHSYPLTFGQGTKLEIKRTVAAPSVFIFPPSDEQLKSGTASVVCLLNNFYPREAKVQWKVDNALQSGNSQESVTEQDSKDSTYSLSSTLTLSKADYEKHKVYACEVTHQGLSSPVTKSFNRGEC
–	–	1.4	–	–	hu27H1L3 (antibody, human IgG1, kappa) heavy: not shown light: QIVLTQSPDFQSVTPKEKVTITCSASSSVSYMYWYQQKPDQSPKPWIYRTSNLASGVPSRFSGSGSGTDYTLTINSLEAEDAATYYCQQYHSYPLTFGQGTKLEIKRTVAAPSVFIFPPSDEQLKSGTASVVCLLNNFYPREAKVQWKVDNALQSGNSQESVTEQDSKDSTYSLSSTLTLSKADYEKHKVYACEVTHQGLSSPVTKSFNRGEC
–	–	1.73	–	–	hu27H1L4 (antibody, human IgG1, kappa) heavy: not shown light: EIVLTQSPDFQSVTPKEKVTIQCSASSSVSYMYWYQQKPDQSPKPWIYRTSNLASGVPSRFSGSGSGTDFTLTINSLEAEDAATYYCQQYHSYPLTFGQGTKLEIKRTVAAPSVFIFPPSDEQLKSGTASVVCLLNNFYPREAKVQWKVDNALQSGNSQESVTEQDSKDSTYSLSSTLTLSKADYEKHKVYACEVTHQGLSSPVTKSFNRGEC
0.0589	0.952	0.112	–	–	hu71H3L2 (antibody, human IgG1, kappa, also called hu71L2H3) heavy: not shown light: DVVVTQTPLSLPVTPGEPASISCRSSQSLVHSYGNTYLHWYLQKPGQSPQLLIYKVSNRFSGVPDRFSGSGSGTDFTLKISRVEAEDVGVYYCSQTTHVPWTFGGGTKVEIKRTVAAPSVFIFPPSDEQLKSGTASVVCLLNNFYPREAKVQWKVDNALQSGNSQESVTEQDSKDSTYSLSSTLTLSKADYEKHKVYACEVTHQGLSSPVTKSFNRGEC
0.0354	0.975	–	–	–	hu2H1L1 (antibody, human IgG1, kappa, V domains shown) VH: EVQLVESGGGLVQPGGSLRLSCAASGFTFSDYYMAWVRQAPGKGLEWVANINFDGSSTYYLDSLKSRFTISRDNAKNSLYLQMNSLRAEDTAVYYCARDLDGYYGYFDVWGQGTTVTVSS VL: EIVLTQSPDFQSVTPKEKVTITCSASSSVSHMYWYQQKPDQSPKLLIYRTSNLASGVPSRFSGSGSGTDFTLTINSLEAEDAATYYCQQYHSYPLMFGQGTKLEIKR
0.398	0.553	2.77	–	–	hu27H1L6 (antibody, human IgG1, kappa) heavy: not shown light: QIVLTQSPDFQSVTPKEKVTIQCSASSSVSYMYWYQQKPDQSPKPWIYRTSNLASGVPSRFSGSGSGTDYTLTINSLEAEDAATYYCQQYHSYPLTFGQGTKLEIKRTVAAPSVFIFPPSDEQLKSGTASVVCLLNNFYPREAKVQWKVDNALQSGNSQESVTEQDSKDSTYSLSSTLTLSKADYEKHKVYACEVTHQGLSSPVTKSFNRGEC
–	–	–	0.5	8	PL-12 (bispecific antibody) chain 1: not shown chain 2: DIVLTQSPASLAVSPGQRATITCRASESVSIHGTHLMHWYQQKPGQPPKLLIYAASKLESGVPARFSGSGSGTDFTLTINPVEAEDTANYYCQQSFEDPLTFGQGTKLEIKRTVASGIPPKIECLPIDISIDEGKCLTVASAFTGEPTPEVTWSTGGRKIHSQEQGRFHIENTDDSTTLTIKDVQKQDGGLYTLTLRNEFGSDSATVNIHIRSI chain 3: not shown chain 4: not shown
–	–	–	1.3	6	PL-14 (bispecific antibody) chain 1: not shown chain 2: DIVLTQSPASLAVSPGQRATITCRASESVSIHGTHLMHWYQQKPGQPPKLLIYAASKLESGVPARFSGSGSGTDFTLTINPVEAEDTANYYCQQSFEDPLTFGQGTKLEIKRTVASGIPPKIECLPIDISIDEGKVLTVASAFTGEPTPEVTWSTGGRKIHSQEQGRFHIENTDDSTTLTIKDVQKQDGGLYTLTLRNEFGSDSATVNIHIRSI chain 3: not shown chain 4: not shown
–	–	–	0.5	4.4	PL-13 (bispecific antibody) chain 1: not shown chain 2: DIVLTQSPASLAVSPGQRATITCRASESVSIHGTHLMHWYQQKPGQPPKLLIYAASKLESGVPARFSGSGSGTDFTLTINPVEAEDTANYYCQQSFEDPLTFGQGTKLEIKRTVASGIPPKIECLPIDISIDEGKVLTVASCFTGEPTPEVTWSTGGRKIHSQEQGRFHIENTDDSTTLTIKDVQKQDGGLYTLTLRNEFGSDSATVNIHIRSI chain 3: not shown chain 4: not shown
0.0421	2.23	0.0795	–	–	hu15H4L2 (antibody, human IgG1, kappa, V domains shown) VH: EFQLVQSGAEVKKPGASVKVSCKASGYSFTDHNMNWVRQAPGQRLEWMGLINPNYGTADYNQKFKGRVTLTVDQSATTAYMELSSLRSEDTAVYYCARGSSLFAYWGQGTLVTVSS VL: DIQMTQSPSSLSASVGDRVTITCKASQGVDTAVAWYQQKPGKSPKLLIYWASTRHTGVPDRFSGSGSGTDFTLTISSLQPEDVATYYCQQYSRYPLTFGQGTKLEIKR
1.06	0.245	4.03	–	–	hu43H3L2 (antibody, human IgG1, kappa, V domains shown) VH: EVQFVESGGGLVQPGGSLRLSCAASGFTFSNYWMNWLRQAPGKGLEWVAQVRLKSDNYATHYAESVKGRFTISREDAKNSAYLQMNSLRAEDTAVYYCSENYYGPAGPFDFWGQGTTVTVSS VL: DIQMTQSPSSLSASVGDRVTITCKASQNVHTSVAWYQQKPGKSPKLLIYSASNRYSGVPSRFSGSGSGTDFTLTISSLQPEDVATYYCQQYSSYPLTFGQGTKLEIKR
–	–	0.141	–	–	Chi31 (antibody, human IgG1, kappa, V domains shown) VH: EVKLVESEGGLVQPGSSKKLSCTASGFTFSDYYMAWVRQVPEKGLEWVASINYDGSSTYYLDSLKSRFIISRDNAKNNLYLQMNSLKSEDTATYYCAGSDGYWAWFAYWGQGTLVTVSA VL: DIQMTQSPASLSASVGEAVTITCRASGNIHNYLAWYQQKQGKSPQLLVYNAETLADGVPSRFSGSGSGTQFSLKINSLRPEDFGSYYCQHFWSTPPTFGGGTKLEIKR
0.029	2.08	–	–	–	chi73 (antibody, human IgG1, kappa, V domains shown) VH: QVQLQQSGPELVKPGASVKISCKASGYAFSTSWMNWVKERPGKGLEWIGRIYPGDGDTKYNGKFQGKATLTADKSSSTAYMKLSSLTSEDSAVYFCVRSIYYLYYFDYWGQGTTLTVSS VL: DIQMTQPTSSLSASLGDRVTISCSTSQDIYNNLSWFQQKPDGTVRLLIYYTSSLHSGVPSRFSGSGSGTDYSLTISNLEPEDIATYYCQQYNNLPFTFGGGTNLEIRR
0.61	0.421	1.1	–	–	hu41H2L2 (antibody, human IgG1, kappa, V domains shown) VH: EVQLVQSGAEVKKPGASVKVSCKASGYTFTSYGISWVRQAPGQGLEWMGEIFPRRGNTYYNEKFRGRVTLTADKSTSTAYMELRSLRSDDTAVYYCARVFDGYYNYAMDYWGQGTTVTVSS VL: DIQMTQSPSSLSASVGDRVTITCRASQDIGSSLNWLQQKPGKAIKRLIYATSSLDSGVPSRFSGSRSGTDYTLTISSLQPEDFATYYCLQYASSPYTFGGGTKVEIKR

Reference: patent publication US20250043022A1 (JIANGSU HENGRUI PHARMACEUTICALS, published 2025)
